Patent US20240301038A1 (ATRECA, published 2024)

Target: SARS-CoV-2 Spike S1 subunit (Sino Biological) (SARS-CoV-2, UniProt P0DTC2 16-685)

Binder | koff [s⁻¹] | kon [M⁻¹ s⁻¹]
AB-009270 (antibody, V domains shown) VH: QMQLVQSGPEVKKPGTSVKVSCKASGFTFTSSAMQWVRQARGQRLEWIGWIVVGSGNTNYAQKFQERVTITRDMSTSTAYMELSSLRSEDTAVYYCAVNYCSSTSCYDAFDIWGQGTMVTVSS VL: not shown | 0.000208 | 69000
AB-009760 (antibody, V domains shown) VH: EVQLVQSGAEVKKPGESLKISCKGSGYSFTSYWIGWVRQMPGKGLEWMGIIYPGDSDTRYSPSFQGQVTISADKSISTAYLQWSSLKASDTAMYYCARSRSSDYFDYWGQGTLVTVSS VL: not shown |  | 64100
